The source of these data is patent US20160194380A1 (Merck KGaA, published 2016).

Where no end group is shown, it is not given here.

Test [1] addresses T1, Bovine pancreatic trypsin (bovine, UniProt P00760 24-246).
T1 construct: Bought
Kind of test: protease inhibition assay, substrate-independent Ki from Morrison fit. As to the method:
(§1) D: Biol. Crystallogr., 69(2013), 114-120; Reinwarth, ChemBioChem, 14(2013), 137-146; Boy, Mol. Imaging Biol. 12(2010), 377-385] Measurements were carried out in triplicates using a Tecan Genios ELISA reader. The normalized residual proteolytic activity (v/v0) of proteases was determined using substrates Boc-QAR-pNA (250 μM), Boc-QAR-AMC (250 μM) or Spectrozym tPA (250 μM). Product formation was monitored after preincubation (30 min, RT) with inhibitor at different concentrations over 30 min by measuring the absorbance at 405 nm or the fluorescence emission (ex. 360 nm, em. 465 nm), respectively. Selectivity data were carried out in duplicates with final protease concentrations of uPA and thrombin of 5 nM. In case of hepsin 50 mM Tris/HCl pH 9.0 was used as assay buffer. Apparent inhibition constants (Kᵢ^app) were calculated by fitting the Morrison equation (1) for tight-binding inhibitors to the relative reaction velocity using non-linear regression (Marquardt-Levenberg algorithm, SigmaPlot 11).
(§2) Substrate-independent inhibition constants Ki were calculated from Ki^app and Km of the enzyme according to (2). The Michaelis-Menten constant Km for the substrates and proteases were determined previously.

The target in another test is T2, Human matriptase-1 (human, UniProt Q9Y5Y6 596-855, limits assumed).
T2 construct: also called MTSP1
T2 sequence (looked up): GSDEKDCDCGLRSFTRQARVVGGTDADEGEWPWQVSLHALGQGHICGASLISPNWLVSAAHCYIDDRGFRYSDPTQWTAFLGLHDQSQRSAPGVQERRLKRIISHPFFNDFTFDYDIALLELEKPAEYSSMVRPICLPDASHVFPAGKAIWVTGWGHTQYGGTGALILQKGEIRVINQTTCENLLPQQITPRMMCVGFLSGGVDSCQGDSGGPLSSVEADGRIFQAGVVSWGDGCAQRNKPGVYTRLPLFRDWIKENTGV
The description is as above. As to the method:
as §1, §2

T1 sequence (P00760 24-246): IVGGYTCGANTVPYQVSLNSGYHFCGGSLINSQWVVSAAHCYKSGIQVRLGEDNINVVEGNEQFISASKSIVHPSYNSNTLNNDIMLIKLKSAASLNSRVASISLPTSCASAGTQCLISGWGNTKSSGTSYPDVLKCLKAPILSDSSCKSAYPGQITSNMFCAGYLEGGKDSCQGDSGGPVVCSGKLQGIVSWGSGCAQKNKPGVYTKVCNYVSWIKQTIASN

B1: SOTI-III wt (inhibitor 1) (peptide, UniProt P84781 1-37, looked up)
peptide: EDKCSPSGAICSGFGPPEQCCSGACVPHPILRIFVCQ
modifications: disulfide (positions not given here); also: oxidatively folded, disulfide places not given here
notes: Made by Fmoc-SPPS and oxidative folding; also called 1 (SOTI-III wt); SOTI-III wild type 1
Usually Ki stands for the dissociation constant of the complex between target and ligand, obtained from inhibition or displacement. In turn, B1 came in with a Ki in test [1] of 60.6 nM.

B2: MCoTI-II wt (inhibitor 3) (peptide, UniProt P82409 5-34, looked up)
peptide: GGVCPKILKKCRRDSDCPGACICRGNGYCG
modifications: disulfide (positions not given here); also: oxidatively folded, disulfide places not given here
notes: Open-chain (acyclic) form, chemically synthesised and oxidatively folded; also called 3 (MCoTI-II wt); MCoTI-wt 3
As for B2, the inhibition constant (Ki) amounted to 80.7 nM with Human matriptase-1 and 2.37 nM in test [1].
